{"source": "patent US20220332829A1", "about": "(NANJING SANHOME PHARMACEUTICAL, published 2022)", "binders": {"B1": {"name": "hBRCA84D (antibody, human IgG1, kappa, V domains shown)", "VH": "EVQLVESGGGLVQPGGSLRLSCAASGFTFSSFGMHWVRQAPGKGLEWVAYISSDSSAIYYADTVKGRFTISRDNAKNSLYLQMNSLRDEDTAVYYCGRGRENIYYGSRLDYWGQGTTVTVSS", "VL": "DIQLTQSPSFLSASVGDRVTITCKASQNVDTNVAWYQQKPGKAPKALIYSASYRYSGVPSRFSGSGSGTDFTLTISSLQPEDFATYYCQQYNNYPFTFGQGTKLEIKR", "notes": "Humanized antibody from WO2011/109400; also called positive control antibody hBRCA84D; control antibody hBRCA84D"}}, "key": {"[1]": {"biological_target": "T1, B7-H3 on surface of tumor cell (786-0, MDA-MB-231, Raji-B7-H3 cells) (human, UniProt Q5ZPR3 29-534)", "T1 sequence (looked up)": "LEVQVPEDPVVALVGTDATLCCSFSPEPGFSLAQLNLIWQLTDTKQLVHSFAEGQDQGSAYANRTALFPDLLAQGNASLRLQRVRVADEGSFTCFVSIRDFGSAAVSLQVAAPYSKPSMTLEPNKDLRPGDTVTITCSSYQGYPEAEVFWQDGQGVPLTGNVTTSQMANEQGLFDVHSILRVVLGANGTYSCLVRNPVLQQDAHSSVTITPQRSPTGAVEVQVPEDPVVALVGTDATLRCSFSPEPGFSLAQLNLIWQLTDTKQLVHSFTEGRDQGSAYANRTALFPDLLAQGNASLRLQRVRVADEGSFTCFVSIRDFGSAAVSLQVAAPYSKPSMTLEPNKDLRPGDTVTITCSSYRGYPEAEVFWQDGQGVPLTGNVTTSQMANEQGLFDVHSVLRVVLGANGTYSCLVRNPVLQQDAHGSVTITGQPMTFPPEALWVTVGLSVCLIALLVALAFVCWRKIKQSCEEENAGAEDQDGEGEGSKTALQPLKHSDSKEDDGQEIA", "experiment": "cell-based or functional assay"}, "[2]": {"biological_target": "T2, human 2Ig-B7-H3-His protein (human, UniProt Q5ZPR3 29-463)", "T2 sequence": "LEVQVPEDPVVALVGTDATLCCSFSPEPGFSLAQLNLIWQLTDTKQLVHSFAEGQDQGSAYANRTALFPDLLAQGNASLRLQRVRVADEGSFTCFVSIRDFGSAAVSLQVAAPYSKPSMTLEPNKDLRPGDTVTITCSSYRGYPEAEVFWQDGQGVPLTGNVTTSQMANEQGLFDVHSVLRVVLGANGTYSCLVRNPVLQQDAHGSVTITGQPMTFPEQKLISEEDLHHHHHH", "experiment": "ELISA, plate coated with human 2Ig-B7-H3-His, detection with anti-human IgG HRP, OD450", "procedure": "(§1) The binding activity of antibodies was analyzed by ELISA. 96-well ELISA plates were coated with human 4Ig-B7-H3-His protein or 2Ig-B7-H3-His protein (1 μg/well, prepared in Examples 1 and 2) and incubated overnight at 4° C. The plates were washed 3 times with 1×PBST and then blocked with 5% skim milk at 37° C. for 2 h. After washing 3 times with 1×PBST, the anti-B7-H3 antibody of the present disclosure was used as the primary antibody and added to the ELISA plates in 5-fold gradient dilution starting from 2 μg/mL with a total of 8 concentrations: 2,000 ng/mL, 400 ng/mL, 80 ng/mL, 16 ng/mL, 3.2 ng/mL, 0.64 ng/mL, 0.128 ng/mL and 0.0256 ng/mL respectively. The plates were incubated at 37° C. for 2 h with hBRCA84D as the positive control antibody. After washing 5 times with 1×PBST, Anti-Human IgG HRP (Jackson, 109-035-003, 1:5000) was used as the secondary antibody and incubated at 37° C. for 1 h. After washing 5 times with 1×PBST, color developing solution TMB was added to the plate, and microplate reader (Thermo, Multiskan FC) was used to read OD450 value after termination of the reaction. EC₅₀ was generated by GraphPad."}, "[3]": {"biological_target": "T1, B7-H3 on surface of tumor cell (786-0, …)", "experiment": "FACS on 786-0 cells", "procedure": "(§2) The binding activity of antibodies to B7-H3 on the surface of tumor cells was analyzed by FACS. Mean fluorescence intensity (MFI) and EC₅₀ detected by FACS indicate the binding activity of the antibody to cells. After 786-0 and MDA-MB-231 cells were digested, they were resuspended in 2% FBS-PBS solution and counted. After raji-B7-H3 cells were collected, they were resuspended in 2% FBS-PBS and counted. The above cells were plated in a cell plate with 1×10⁵ cells per well. The anti-B7-H3 antibody of the present disclosure was used as the primary antibody and added to cell plates in gradient dilution starting from 20 μg/mL with a total of 8 concentrations: 20,000 ng/mL, […], 2,000 ng/mL, 400 ng/mL, 80 ng/mL, 16 ng/mL, 3.2 ng/mL, and 0.64 ng/mL respectively. The plates were incubated at 4° C. for 1 h with hBRCA84D as the positive control antibody. PE-Anti-Human IgG (Biolegend, Cat. No. 409303, 1.25 μl/well) was used as the secondary antibody, washed, and detected for the fluorescence intensity generated by the binding of the antibody to the cell surface by a flow cytometer."}, "[4]": {"biological_target": "T1, B7-H3 on surface of tumor cell (786-0, …)", "experiment": "FACS on MDA-MB-231 cells", "procedure": "as §2"}, "[5]": {"biological_target": "T1, B7-H3 on surface of tumor cell (786-0, …)", "experiment": "FACS on Raji-B7-H3 cells", "procedure": "as §2"}, "[6]": {"biological_target": "T3, human 4Ig-B7-H3-His protein (human, UniProt Q5ZPR3 29-466)", "T3 construct": "also called human B7-H3 protein", "T3 sequence": "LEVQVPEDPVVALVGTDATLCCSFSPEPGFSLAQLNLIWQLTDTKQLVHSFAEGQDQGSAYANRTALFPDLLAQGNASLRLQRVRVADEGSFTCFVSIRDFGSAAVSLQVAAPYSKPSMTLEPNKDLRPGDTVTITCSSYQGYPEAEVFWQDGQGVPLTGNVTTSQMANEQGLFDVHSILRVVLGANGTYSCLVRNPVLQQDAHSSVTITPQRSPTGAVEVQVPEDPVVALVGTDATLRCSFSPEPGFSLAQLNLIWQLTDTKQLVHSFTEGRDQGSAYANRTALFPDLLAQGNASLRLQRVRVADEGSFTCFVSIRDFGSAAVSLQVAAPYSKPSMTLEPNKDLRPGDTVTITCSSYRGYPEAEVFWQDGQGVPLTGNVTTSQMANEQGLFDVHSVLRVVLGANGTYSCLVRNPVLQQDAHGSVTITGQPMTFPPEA", "experiment": "ELISA, plate coated with human 4Ig-B7-H3-His, detection with anti-human IgG HRP, OD450", "procedure": "as §1"}}, "data": [{"binder": "B1", "values": [{"measurement": "EC50 Ratio (ADCC, LDH method; EC50 of hBRCA84D divided by EC50 of the antibody; 786-0 target cells, human PBMC effectors)", "setting": "[1]", "result": 1}, {"measurement": "EC50 (read off the curve)", "setting": "[2]", "result": "~0.01", "unit": "µg/mL"}, {"measurement": "EC50", "setting": "[3]", "result": 0.226, "unit": "µg/mL"}, {"measurement": "Mean fluorescence intensity (MFI)", "setting": "[3]", "result": 233000}, {"measurement": "EC50", "setting": "[4]", "result": 0.384, "unit": "µg/mL"}, {"measurement": "Mean fluorescence intensity (MFI)", "setting": "[4]", "result": 35800}, {"measurement": "Mean fluorescence intensity (MFI)", "setting": "[5]", "result": 233000}, {"measurement": "EC50 (read off the curve)", "setting": "[6]", "result": "~0.005", "unit": "µg/mL"}]}]}
